Assay results as given in US20180221438A1, “MODULATING URACIL-DNA GLYCOSYLASE AND USES THEREOF” (Adaerata Limited Partnership, priority 2015, published 2018).

Legend:
[1] = biological target: E. coli UNG (Escherichia coli, UniProt P12295); settings: cited from earlier work
[2] = system: CH12F3 cells; assay: FISH of metaphase chromosomes for sister telomere loss (STL) in CH12F3 cells; assay type: cell-based, mouse
Experimental: (§1) B cell lymphoma cells, CH12F3-2 cells, were cultured in RPMI medium supplemented with 10% FBS, 0.05% 2- mercaptoethanol and 5% NCTC 109 (Sigma). CH12F3-2 cells stably expressing Ugi were obtained by retroviral delivery using pMIG vector as described before ^39. Class switching induction to IgA in CH12F3-2 cells was performed as previously published ^39. CSR to IgA in CH12F3-2 cells was determined with an Accuri C6™ Flow Cytometer (BD Biosciences). Mouse B cells were purified from freshly isolated splenocytes using anti-CD43 magnetic beads as described ^70. CSR was induced using 5 ? g/ml LPS (Sigma) and 20 ng/ml IL-4 (Preprotech). Cells were harvested for ChIP or metaphase spreads and FISH at 24 h post stimulation.
For metaphase analysis cells were incubated with 50 ng/ml colcemide in cell culture media for 3 hours, harvested by trypsinization, incubated for 10 min at RT in 75 mM KCl, and fixed in freshly prepared methanol:glacial acetic acid (3:1 v/v). Cells were stored at 4° C. and when needed dropped onto wet slides and air-dried. For FISH analysis of the metaphases the cells were pre-treated with 0.05% w/v pepsin in 10 mM HCl during 10 minutes at 37° C. […] Finally, the samples were analyzed as described above. […]

[3] = system: CH12F3 cells; assay: Proliferation of CH12F3 cells after CSR stimulation (cell number, CFSE dilution); assay type: cell-based, mouse; settings: CH12F3 Ugi cells stimulated for CSR; prevented by AID knockdown
Experimental: as §1

[4] = system: CH12F3-2 cells; assay: Cloning efficiency of single CH12F3-2 cells; assay type: cell-based, mouse; settings: 14 days after single-cell dilution with cytokines to induce CSR to IgA, vs CH12F3-2 GFP
Source text: B cells must expand clonally while expressing AID during the GC reaction. Based on the results described above the inventors asked whether UNG deficiency might limit the proliferation capacity of transformed B-cells expressing AID. To assess the effect of UNG deletion on the proliferation of B-cells expressing AID, the inventors immunized WT and UNG-null mice with a T-dependent antigen to stimulate germinal center (GC) B-cell expansion and AID expression in vivo. The inventors used an AID-GFPtg reporter mouse that allows identifying AID+ GC B-cells in response to immunization ^6,28. […] This reduction was explained by the ˜3-fold smaller average GC size in Ung^−/− versus Ung^+/+ AID-GFPtg mice, rather than any difference in the number of GC (FIGS. 10C-D). […] However, it must be noted that at variance with immunization, which stimulates a few B-cells that need to undergo clonal expansion to form the GC, stimulation in vitro with cytokines causes massive proliferation accompanied by a high level of spontaneous cell death, which likely obscures the additional increase due to UNG-deficiency (not shown). To address this limitation, the inventors evaluated the cloning efficiency of single B-cells. […]

[5] = system: CH12F3 cells; assay: Terminal restriction fragment (TRF) analysis of telomeric DNA in CH12F3 cells; assay type: cell-based, mouse; settings: CH12F3 Ugi cells
[6] = biological target: T1, UNG (Mus musculus, UniProt P97931); assay: UNG activity assay with CH12F3 cell extracts; assay type: biochemical; settings: CH12F3 Ugi cell extracts
T1 construct: endogenous in cells; host or cells: CH12F3 (CH12F3-2) mouse B lymphoma cells, with or without retrovirally expressed Ugi and shRNAs; sonicated whole-cell extract
T1 sequence (P97931 whole entry): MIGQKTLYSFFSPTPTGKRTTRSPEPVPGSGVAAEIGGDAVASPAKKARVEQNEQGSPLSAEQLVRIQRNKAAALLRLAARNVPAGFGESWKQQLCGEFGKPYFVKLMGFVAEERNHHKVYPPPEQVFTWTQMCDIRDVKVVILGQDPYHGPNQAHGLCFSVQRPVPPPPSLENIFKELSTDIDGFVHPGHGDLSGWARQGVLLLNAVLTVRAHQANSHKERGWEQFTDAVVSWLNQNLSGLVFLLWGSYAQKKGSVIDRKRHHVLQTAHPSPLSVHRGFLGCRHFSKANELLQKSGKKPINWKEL
Experimental: UNG activity assay was performed as previously described ^69 with minor modifications. Briefly, exponentially growing cells were washed in 1X PBS buffer, resuspended in HED buffer (25 mM Hepes, 5 mM EDTA, 1 mM dithiothreitol and 10% glycerol at pH 7.8) with complete protease inhibitors (Roche) and lysed by sonication (five pulses of 30 seconds) in a Bioruptor™ (Diagenode). After centrifugation at 14,000 rcf for 20 min at 4° C., the supernatant was frozen in aliquots into liquid nitrogen and stored at […]. UNG assays were carried out in HED buffer by mixing 10 μg of cell extract with 1 pmol of fluorescein-labeled oligonucleotide substrate in a final volume of 10 μl for 3 hours at 37° C. The double-stranded oligonucleotide with a single dU/dG mismatch was made by annealing 5′-[…](SEQ ID NO: 45)-fluorescein (FITC) to the complementary oligonucleotide, 5′-[…]-3′(SEQ ID NO: 46). The reaction was terminated by the addition of 10 UI of formamide loading dye and the products were resolved on 15% TBE-urea polyacrylamide gels. The apyrimidinic endonuclease (APE) activity present in the extracts was sufficient to cleave all the abasic substrate generated by UNG during the reaction. The FITC signal of the reaction products was visualized using a Typhoon Phosphorlmager™ (GE Healthcare).

Chain of E. coli UNG (P12295 whole entry): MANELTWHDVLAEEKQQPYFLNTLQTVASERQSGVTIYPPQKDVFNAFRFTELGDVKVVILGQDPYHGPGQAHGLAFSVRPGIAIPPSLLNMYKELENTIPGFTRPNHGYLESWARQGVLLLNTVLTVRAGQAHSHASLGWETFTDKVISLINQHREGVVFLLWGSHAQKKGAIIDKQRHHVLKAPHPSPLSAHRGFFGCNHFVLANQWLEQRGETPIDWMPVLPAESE

B1: Ugi: Uracil Glycosylase Inhibitor of Bacillus subtilis bacteriophage PBS1/PBS2, small protein (9.5 kDa), SEQ ID NO: 29; expressed in cells by retroviral delivery (protein)
chain: MTNLSDIIEKETGKQLVIQESILMLPEEVEEVIGNKPESDILVHTAYDESTDENVMLLTSDAPEYKPWALVIQDSNGENKIKML
modifications: bacillus subtilis
notes: expressed in cells by retroviral delivery
[1]
  inhibition of UNG: inhibits E. coli UNG as well as UNG from other species
[2]; CH12F3 Ugi cells expressing human AID, without inducing class switching, vs CH12F3 GFP
  STL: significant increase in STL
[2]; activated CH12F3 cells expressing Ugi vs CH12F3 cells expressing GFP alone
  metaphase chromosomes with STL: significant increase in metaphase chromosomes with STL
[3]
  growth (total cell number or CFSE dilution assay): reduced growth
[4]
  cloning capacity: significant decrease in the cloning capacity
[5]; DNA treated with exonuclease before TRF analysis
  intra-telomeric G-rich single-stranded DNA: MSH2-dependent increase in intra-telomeric G-rich single-stranded DNA
[5]; terminal restriction fragment analysis
  telomere G-rich 3′ overhang signal: normal telomere G-rich 3′ overhang signal
[6]
  UNG activity: lacked UNG activity
